According to publication PMC10397247:
Read-outs that look alike come from different tables or passages of the source.

Columns and labels:
4H432-AA = target: T1, 4H432-AA; assay: two-hybrid library CCmax; conditions: mean of both orientations;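 note: natural log of median RNA to DNA barcode read ratio; higher means stronger binding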
T1 chain: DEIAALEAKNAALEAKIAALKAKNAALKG

4H446-AA = target: T2, 4H446-AA; assay: two-hybrid library CCmax; conditions: mean of both orientations;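 note: natural log of median RNA to DNA barcode read ratio; higher means stronger binding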
T2 chain: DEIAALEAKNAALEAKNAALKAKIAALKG

4H3974-AA = target: T3, 4H3974-AA; assay: two-hybrid library CCmax;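 note: natural log of median RNA to DNA barcode read ratio; higher means stronger binding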
T3 chain: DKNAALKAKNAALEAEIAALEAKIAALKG

4H63-AA = target: T4, 4H63-AA; assay: two-hybrid library CCmax; conditions: mean of both orientations;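 note: natural log of median RNA to DNA barcode read ratio; higher means stronger binding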
T4 chain: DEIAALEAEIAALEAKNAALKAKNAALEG

4H717-AA = target: T5, 4H717-AA; assay: two-hybrid library CCmax; conditions: mean of both orientations;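 note: natural log of median RNA to DNA barcode read ratio; higher means stronger binding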
T5 chain: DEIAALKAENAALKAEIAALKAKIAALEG

4H335-AA = target: T6, 4H335-AA; assay: two-hybrid library CCmax; conditions: mean of both orientations;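 note: natural log of median RNA to DNA barcode read ratio; higher means stronger binding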
T6 chain: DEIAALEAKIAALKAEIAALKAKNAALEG

4H429-AA = target: T7, 4H429-AA; assay: two-hybrid library CCmax; conditions: mean of both orientations
T7 chain: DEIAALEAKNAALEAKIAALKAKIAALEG

4H3427-AA = target: T8, 4H3427-AA; assay: two-hybrid library CCmax; conditions: mean of both orientations
T8 chain: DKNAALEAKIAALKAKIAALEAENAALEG

4H3655-AA = target: T9, 4H3655-AA; assay: two-hybrid library CCmax; conditions: mean of both orientations
T9 chain: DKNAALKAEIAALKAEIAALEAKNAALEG

4H3343-AA = target: T10, 4H3343-AA; assay: two-hybrid library CCmax; conditions: mean of both orientations
T10 chain: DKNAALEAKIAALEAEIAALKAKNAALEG

4H780-AA = target: T11, 4H780-AA; assay: two-hybrid library CCmax; conditions: mean of both orientations
T11 chain: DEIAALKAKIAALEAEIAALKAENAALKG

4H794-AA = target: T12, 4H794-AA; assay: two-hybrid library CCmax
T12 chain: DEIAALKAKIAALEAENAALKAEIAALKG

4H566-AA = target: T13, 4H566-AA; assay: two-hybrid library CCmax; conditions: mean of both orientations
T13 chain: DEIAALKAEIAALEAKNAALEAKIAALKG

4H3921-AA = target: T14, 4H3921-AA; assay: two-hybrid library CCmax; conditions: mean of both orientations
T14 chain: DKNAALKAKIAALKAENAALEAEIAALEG

4H3606-AA = target: T15, 4H3606-AA; assay: two-hybrid library CCmax; conditions: mean of both orientations
T15 chain: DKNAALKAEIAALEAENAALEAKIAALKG

4H48-AA = target: T16, 4H48-AA; assay: two-hybrid library CCmax; conditions: mean of both orientations
T16 chain: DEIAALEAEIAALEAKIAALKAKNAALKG

4H678-AA = target: T17, 4H678-AA; assay: two-hybrid library CCmax; conditions: mean of both orientations
T17 chain: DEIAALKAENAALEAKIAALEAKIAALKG

4H881-AA = target: T18, 4H881-AA; assay: two-hybrid library CCmax; conditions: mean of both orientations
T18 chain: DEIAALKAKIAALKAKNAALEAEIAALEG

4H3627-AA = target: T19, 4H3627-AA; assay: two-hybrid library CCmax; conditions: mean of both orientations
T19 chain: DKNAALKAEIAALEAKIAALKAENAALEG

4H993-AA = target: T20, 4H993-AA; assay: two-hybrid library CCmax; conditions: mean of both orientations
T20 chain: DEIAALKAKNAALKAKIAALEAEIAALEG

4H605-AA = target: T21, 4H605-AA; assay: two-hybrid library CCmax; conditions: mean of both orientations
T21 chain: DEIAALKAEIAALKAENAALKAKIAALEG

4H906-AA = target: T22, 4H906-AA; assay: two-hybrid library CCmax; conditions: mean of both orientations
T22 chain: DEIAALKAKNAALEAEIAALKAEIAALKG

4H317-AA = target: T23, 4H317-AA; assay: two-hybrid library CCmax
T23 chain: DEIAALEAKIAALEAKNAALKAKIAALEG

4H342-AA = target: T24, 4H342-AA; assay: two-hybrid library CCmax; conditions: mean of both orientations
T24 chain: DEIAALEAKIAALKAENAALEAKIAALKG

4H454-AA = target: T25, 4H454-AA; assay: two-hybrid library CCmax; conditions: mean of both orientations
T25 chain: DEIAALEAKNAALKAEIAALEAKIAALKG

4H3844-AA = target: T26, 4H3844-AA; assay: two-hybrid library CCmax; conditions: mean of both orientations
T26 chain: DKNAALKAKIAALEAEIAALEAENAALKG

4H3112-AA = target: T27, 4H3112-AA; assay: two-hybrid library CCmax; conditions: mean of both orientations
T27 chain: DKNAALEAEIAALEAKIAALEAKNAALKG

4H2949-AA = target: T28, 4H2949-AA; assay: two-hybrid library CCmax
T28 chain: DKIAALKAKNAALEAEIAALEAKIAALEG

4H850-bN = target: T29, 4H850-bN; assay: two-hybrid library CCNG1
T29 chain: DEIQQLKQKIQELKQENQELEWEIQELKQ

4H906-bN = target: T30, 4H906-bN; assay: two-hybrid library CCNG1
T30 chain: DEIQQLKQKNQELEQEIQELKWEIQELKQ

4H675-AA = target: T31, 4H675-AA; assay: two-hybrid library CCmax; conditions: mean of both orientations
T31 chain: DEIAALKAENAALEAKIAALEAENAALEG

4H478-AA = target: T32, 4H478-AA; assay: two-hybrid library CCmax; conditions: mean of both orientations
T32 chain: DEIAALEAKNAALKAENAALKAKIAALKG

4H656-AA = target: T33, 4H656-AA; assay: two-hybrid library CCmax; conditions: mean of both orientations
T33 chain: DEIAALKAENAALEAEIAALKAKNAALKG

4H3920-AA = target: T34, 4H3920-AA; assay: two-hybrid library CCmax
T34 chain: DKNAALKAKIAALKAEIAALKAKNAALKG

4H497-AA = target: T35, 4H497-AA; assay: two-hybrid library CCmax; conditions: mean of both orientations
T35 chain: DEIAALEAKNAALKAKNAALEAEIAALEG

4H3939-AA = target: T36, 4H3939-AA; assay: two-hybrid library CCmax; conditions: mean of both orientations
T36 chain: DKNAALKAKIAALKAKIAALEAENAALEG

4H428-AA = target: T37, 4H428-AA; assay: two-hybrid library CCmax; conditions: mean of both orientations
T37 chain: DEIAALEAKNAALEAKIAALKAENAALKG

4H971-AA = target: T38, 4H971-AA; assay: two-hybrid library CCmax; conditions: mean of both orientations
T38 chain: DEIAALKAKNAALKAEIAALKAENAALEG

APC9806-AA = target: T39, APC9806-AA; assay: two-hybrid library CCmax; conditions: mean of both orientations
T39 chain: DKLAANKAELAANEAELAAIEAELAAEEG

APC9291-AA = target: T40, APC9291-AA; assay: two-hybrid library CCmax
T40 chain: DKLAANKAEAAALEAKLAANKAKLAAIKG

4H483-AA = target: T41, 4H483-AA; assay: two-hybrid library CCmax
T41 chain: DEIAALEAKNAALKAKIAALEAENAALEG

## DKNAALKAKNAALEAEIAALEAKIAALKG [4H3974-AA]
4H432-AA
  interaction score: -0.198
4H446-AA
  interaction score: -0.724
4H3974-AA
  interaction score: -0.00837
4H63-AA
  interaction score: -0.932

## DEIAALEAKIAALEAKNAALKAKIAALEG [4H317-AA]
4H717-AA
  interaction score: -1.63
4H335-AA
  interaction score: -0.361
4H429-AA
  interaction score: -0.459
4H3427-AA
  interaction score: 1.23
4H3655-AA
  interaction score: -0.949
4H3343-AA
  interaction score: -1.56
4H780-AA
  interaction score: -1.52
4H794-AA; mean of both orientations
  interaction score: 0.104
4H566-AA
  interaction score: 1.74
4H3921-AA
  interaction score: 1.81
4H3606-AA
  interaction score: 2.23
4H48-AA
  interaction score: 0.228
4H678-AA
  interaction score: 0.755
4H881-AA
  interaction score: 1.38
4H3627-AA
  interaction score: -0.771
4H993-AA
  interaction score: -1.11
4H605-AA
  interaction score: -0.441
4H906-AA
  interaction score: 0.51
4H317-AA
  interaction score: 1.28
4H342-AA
  interaction score: 2.15
4H454-AA
  interaction score: -1.04
4H3844-AA
  interaction score: -0.686

## DKIAALKAKNAALEAEIAALEAKIAALEG [4H2949-AA]
4H717-AA
  interaction score: -0.385
4H335-AA
  interaction score: -0.276
4H429-AA
  interaction score: 1.91
4H3427-AA
  interaction score: -0.95
4H3655-AA
  interaction score: -1.3
4H3343-AA
  interaction score: -1.48
4H780-AA
  interaction score: -1.49
4H794-AA
  interaction score: -1
4H3112-AA
  interaction score: -0.654
4H566-AA
  interaction score: -0.649
4H3921-AA
  interaction score: 0.152
4H3606-AA
  interaction score: -0.156
4H48-AA
  interaction score: -0.564
4H678-AA
  interaction score: 1.69
4H881-AA
  interaction score: 1.71
4H3627-AA
  interaction score: -1.38
4H993-AA
  interaction score: 1.65
4H605-AA
  interaction score: -0.239
4H2949-AA
  interaction score: 1.3
4H906-AA
  interaction score: -1.01
4H317-AA; mean of both orientations
  interaction score: 1.47
4H342-AA
  interaction score: 0.399
4H454-AA
  interaction score: 1.98
4H3844-AA
  interaction score: -1.79

## DEIQQLKQKIQELKQENQELEWEIQELKQ [4H850-bN]
4H850-bN
  interaction score: 0.186
4H906-bN
  interaction score: -0.386

## DKNAALKAKIAALKAEIAALKAKNAALKG [4H3920-AA]
4H675-AA
  interaction score: -1.22
4H478-AA
  interaction score: -1.71
4H656-AA
  interaction score: -1.01
4H3920-AA
  interaction score: -1.57
4H497-AA
  interaction score: -1.9
4H3939-AA
  interaction score: -0.87
4H428-AA
  interaction score: -0.945
4H971-AA
  interaction score: -1.64

## DKLAANKAEAAALEAKLAANKAKLAAIKG [APC9291-AA]
APC9806-AA
  interaction score: -1.78
APC9291-AA
  interaction score: -1.78

## DEIAALEAKNAALKAKIAALEAENAALEG [4H483-AA]
4H483-AA
  interaction score: -2.02
4H63-AA
  interaction score: -1.11
